Measurements taken from paper PMC8624084, “Persulfidation of Nitrate Reductase 2 Is Involved in L-Cysteine Desulfhydrase-Regulated Rice Drought Tolerance” (International Journal of Molecular Sciences, 2021).

Key:
Type in all cases: biochemical, Oryza sativa
[1] = substrate: CC(=O)OC[C@H](N)C(=O)O; test: OAS-TL activity assay, Lineweaver-Burk; conditions: OAS-TL (cysteine synthase) side reaction; co-substrate Na2S
[2] = substrate: S; test: OAS-TL activity assay, Lineweaver-Burk; conditions: OAS-TL (cysteine synthase) side reaction; co-substrate OAS
[3] = substrate: N[C@@H](CS)C(=O)O; test: purified protein; conditions: L-cysteine desulfhydrase (CDes) reaction, method section: 100 mM Tris/HCl pH 8.5, 2.5 mM DTT, 37 °C

B1: OsLCD1 (Oryza sativa Japonica Group) (protein)
chain: MASIPPDDDAAAAAAAGAAENGYGNGKGNGNGPAPRPPPAKRPRSVISAAQIRAEFEHHEAGVARVNNGSFGCCPSSLLDAQARWQRLFIAQPDDFYFHALQPGLRRSRAAVAGLVNAGDVAEVSLVDNATTAAAIVLQHAAWSFAEGRFSRGDAVLMLHYAYGAVKKSIHAYVARAGATVVEVPLPFPVASADAIIAEFRAALDVAKAGGRKVRLAVIDHITSMPSVVIPVKELVAICREEGVDKVFIDAAHSIGQVPVDVRDIGADFYTSNLHKWFFCPPAVAFLHTRKDDPIASQLHHPVVSHEYGNGLPMESGWIGTRDYSAQLVVPESIDFVNRFEGGIEGIRSRNHEKVIEMGKMLAEAWGTFLGTPPELCGSMVMVGLPGCLGVESDDDVMRMRTMLRKDFMVEVPIYYNSRRVEAQEMAKDKNGDAVTGYVRISHQVYNVTEDYEKLRDAVNKLVADGFTSSKLRPSQKQETMA
notes: full length, 482 residues, 55 kDa, N-terminal 6xHis tag (pET-28a(+)), E. coli Rosetta (DE3), Ni-NTA purified
B1 gave a Km [1] of 3.76 ± 0.41 mM, a Km [2] of 8.13 ± 0.72 mM and a Km [3] of 0.15 ± 0.02 mM.
